The nature of the data set: protein stability index of a GFP-peptide fusion (GPS, HEK-293T) (PSI 1-6); higher = more stable. The note with it: c terminus: a fixed tail appended.

In the supplement of paper PMC10567573 one finds protein stability index data, which are given here for 36 sequences.

± gives the standard deviation.
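Note: 24-mer peptide tiles fused after GFP, lentivirally expressed, FACS-sorted into six equal bins by GFP/DsRed ratio, decoded by Illumina sequencing, PSI is the read-weighted mean bin number.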

On to QGRFCTIFRSYSRGAQGVILVYDI [RAB40A], for which the protein stability index reads like this: (treatment: DMSO) 3.15 ± 0.35; (treatment: MLN4924 1 uM, 8 h) 2.99 ± 0.43.
As to QIKDFKEKIQQDADSVITVGRGEV [ACBD3], the protein stability index is, setting by setting: (treatment: DMSO) 5.06 ± 0.18; (treatment: MLN4924 1 uM, 8 h) 5.06 ± 0.32.
QKLNVFKNFIGLLQNQNFPYPVLF [NLN]: the protein stability index (treatment: DMSO) was 2.89 ± 1.1 and the protein stability index (treatment: MLN4924 1 uM, 8 h) amounted to 2.76 ± 0.46.
Consider QKVASNHSPFSSESRALSTSSNLG [TBX5], for which the protein stability index runs as follows: (treatment: DMSO) 4.19 ± 0.17; (treatment: MLN4924 1 uM, 8 h) 4.29 ± 0.085.
On to QLLYSPIENIQRVAAGVLCELAQD [CTNNB1], for which the protein stability index came out at 2.29 ± 0.24 (treatment: DMSO) and 2.27 ± 0.27 (treatment: MLN4924 1 uM, 8 h).
For the sequence QMTPTNLAVCLAPSLFHLNTLKRE [DLC1], the protein stability index is, setting by setting: (treatment: DMSO) 2.79 ± 0.044; (treatment: MLN4924 1 uM, 8 h) 2.53 ± 0.036.
On to QPRIHLVRAAQLCSQHWGGMASFR [TBX6], for which the protein stability index was 2.38 ± 0.56 (treatment: DMSO) and 2.24 ± 0.11 (treatment: MLN4924 1 uM, 8 h).
In the case of QQDLERSLQDASRGDPAHAGLAEL [PBXIP1], the protein stability index runs as follows: (treatment: DMSO) 5.32 ± 0.18; (treatment: MLN4924 1 uM, 8 h) 5.38 ± 0.16.
Take QQLNDYEQLLDVKLALDMEISAYR [LMNB1]: the protein stability index by setting is: (treatment: DMSO) 2.95 ± 0.32; (treatment: MLN4924 1 uM, 8 h) 2.9 ± 0.31.
The sequence QQLYYTEADYEDDSKIAFLMQLQD [IQUB] came in with a protein stability index (treatment: DMSO) of 3.45 ± 0.54 and a protein stability index (treatment: MLN4924 1 uM, 8 h) of 3.48 ± 0.51.
For QRLDYEREIQPTAILSLDQIKAIR [SPRY1], in that order: 3.7 ± 0.061 and 3.87 ± 0.24.
Consider QSAFLHLPLPEQIHKASATIIEPA [INTS4], for which the protein stability index is, setting by setting: (treatment: DMSO) 3.45 ± 0.31; (treatment: MLN4924 1 uM, 8 h) 3.82 ± 0.1.
Regarding QSKGHGRAVDWWALGILIFEMLSG [PRKX], the protein stability index came out at 2.58 ± 0.58 (treatment: DMSO) and 2.56 ± 0.36 (treatment: MLN4924 1 uM, 8 h).
Take QSMSEEEREKVTPLMVKGFRDAAE [SEPHS2]: the protein stability index is 5.01 ± 0.27 (treatment: DMSO) and 4.88 ± 0.24 (treatment: MLN4924 1 uM, 8 h).
For QSSGKVMYFSSLFPYVVLACFLVR [SLC6A17], in that order: 2.6 ± 0.76 and 2.41 ± 0.24.
On to QSVSYSKLLSVIVWMLMLLLAVPN [P2RY14], for which the protein stability index was 3.24 ± 0.27 (treatment: DMSO) and 3.17 ± 0.49 (treatment: MLN4924 1 uM, 8 h).
The corresponding values for QVDVGDVNDNAPEVLLASLANPVL [PCDHGC5] are 4.07 ± 0.28 and 4.21 ± 0.31.
With QYVTFLRSFSDKQKISLLHSCTCV [ALG2], the protein stability index reads like this: (treatment: DMSO) 3.1 ± 0.51; (treatment: MLN4924 1 uM, 8 h) 2.69 ± 0.48.
As to RAPACSPEAAAAQLRATAGSLILP [FCHO1], the protein stability index amounted to 3.12 ± 0.38 (treatment: DMSO) and 3.15 ± 0.34 (treatment: MLN4924 1 uM, 8 h).
For RARDSPEPGAGLGIGDMAFEGDMG [PSD2], in that order: 4.73 ± 0.13 and 4.91 ± 0.15.
Regarding RARRTEISKNSEKKMESEEDSNWE [GOLPH3L], the protein stability index runs as follows: (treatment: DMSO) 5.43 ± 0.49; (treatment: MLN4924 1 uM, 8 h) 5.35 ± 0.44.
On to RCIGVTKPIFHSTKITSKHVKMML [PTGFR], for which the protein stability index stood at 2.13 ± 0.27 (treatment: DMSO) and 2.15 ± 0.28 (treatment: MLN4924 1 uM, 8 h).
Regarding RDFDNNTPLHIAAQNNCPAIMNAL [FEM1A], the protein stability index by setting is: (treatment: DMSO) 3.36 ± 0.3; (treatment: MLN4924 1 uM, 8 h) 3.46 ± 0.41.
RDKNWQTPLHVAAANKAVKCAEVI [ANKRD44] registered a protein stability index (treatment: DMSO) of 3.69 ± 0.38 and a protein stability index (treatment: MLN4924 1 uM, 8 h) of 3.7 ± 0.19.
Consider RDLTQEQTEKLLQFQDLTGIESMD [FAF2], for which the protein stability index (treatment: DMSO) was 5.04 ± 0.11 and the protein stability index (treatment: MLN4924 1 uM, 8 h) stood at 5.05 ± 0.16.
On to RDNAELEKLIQERSQQQEPLLCPS [KRT34], for which the protein stability index reads like this: (treatment: DMSO) 4.94 ± 0.13; (treatment: MLN4924 1 uM, 8 h) 4.87 ± 0.27.
Consider RDPQAVKERALSAPWLSLFPPEGN [ZNF263], for which the protein stability index reads like this: (treatment: DMSO) 3.06 ± 0.27; (treatment: MLN4924 1 uM, 8 h) 3.14 ± 0.33.
For REDQLDTVLAVLEDSSRDIREALH [INTS4], in that order: 4.21 ± 0.36 and 4.38 ± 0.34.
In the case of RELREVRRVPPRFSIPPTNHEIMP [PTPRD], the protein stability index is 3.74 ± 0.093 (treatment: DMSO) and 3.88 ± 0.14 (treatment: MLN4924 1 uM, 8 h).
Regarding RESFTSRQKTSGPSVIQEIHQESG [C10orf62], the protein stability index reads like this: (treatment: DMSO) 4.94 ± 0.099; (treatment: MLN4924 1 uM, 8 h) 5.02 ± 0.24.
Turning to RFCCCVAVIYLGYCFCGWIVLGPY [MCOLN1], the protein stability index came to 3.41 ± 0.26 (treatment: DMSO) and 3.28 ± 0.48 (treatment: MLN4924 1 uM, 8 h).
As to RGENVVLLGEIDLEKESDTPLQQV [LSM1], the protein stability index stood at 4.96 ± 0.27 (treatment: DMSO) and 4.79 ± 0.18 (treatment: MLN4924 1 uM, 8 h).
With RGKNKMAAQNCRKRKLDTILNLER [NFE2L1], the protein stability index runs as follows: (treatment: DMSO) 3.57 ± 0.33; (treatment: MLN4924 1 uM, 8 h) 3.63 ± 0.24.
RGLPLLKTDFGSCLLQPPSCPNGM [DLC1] returned a protein stability index (treatment: DMSO) of 2.69 ± 0.22 and a protein stability index (treatment: MLN4924 1 uM, 8 h) of 2.67 ± 0.41.
Consider RHCDDDGRTENGALAPKQELPSAL [ZNF24], for which the protein stability index is, setting by setting: (treatment: DMSO) 5.25 ± 0.22; (treatment: MLN4924 1 uM, 8 h) 5.15 ± 0.21.
With RHLAHSMLQRAIAYQHSGHLESKD [C10orf62], the protein stability index by setting is: (treatment: DMSO) 3.91 ± 0.24; (treatment: MLN4924 1 uM, 8 h) 3.92 ± 0.21.
